Reference: paper PMC3348966 (Proteins, 2012)
Like-named read-outs stand apart in the source and are kept apart here.

Key:
[1] = target: XloA (Thermotoga maritima, UniProt Q9WXT1); experiment: p-nitrophenol release at […] nm; type: biochemical; settings: data not shown; auxiliary enzyme
[2] = substrate: CC(=O)O[C@@H]1CO[C@@H](Oc2ccc([N+](=O)[O-])cc2)[C@H](O)[C@H]1O; experiment: purified protein; type: biochemical, Thermotoga maritima; settings: 0.1 M sodium phosphate pH 7, 60 °C, excess XloA
[3] = substrate: CC(=O)O[C@@H]1[C@@H](O)[C@H](Oc2ccc([N+](=O)[O-])cc2)OC[C@H]1O; experiment: purified protein; type: biochemical, Thermotoga maritima; settings: 0.1 M sodium phosphate pH 7, 60 °C, excess XloA
[4] = substrate: CC(=O)O[C@H]1[C@H](Oc2ccc([N+](=O)[O-])cc2)OC[C@@H](O)[C@@H]1O; experiment: purified protein; type: biochemical, Thermotoga maritima; settings: 0.1 M sodium phosphate pH 7, 60 °C, excess XloA
[5] = substrate: CC(=O)Oc1ccc([N+](=O)[O-])cc1; experiment: purified protein; type: biochemical, Thermotoga maritima; settings: 50 mM citrate-phosphate pH 6, 70 °C (standard assay)
[6] = substrate: CCC(=O)Oc1ccc([N+](=O)[O-])cc1; experiment: purified protein; type: biochemical, Thermotoga maritima; settings: 50 mM citrate-phosphate pH 6, 70 °C (standard assay)
[7] = target: the molecule itself; experiment: crystal structure
[8] = target: the molecule itself; experiment: crystal structure; remark: listed apart in the source

O=[N+]([O-])c1ccc(O[C@@H]2OC[C@@H](O)[C@H](O)[C@H]2O)cc1 [4-nitrophenyl β-D-xylopyranoside]
p-nitrophenol release at 405 nm [1]: its activity was confirmed by measuring release of p-nitrophenol from the substrate pNP-Xyl

B1: TM0077 (Thermotoga maritima MSB8) (protein)
chain: MAFFDLPLEELKKYRPERYEEKDFDEFWEETLAESEKFPLDPVFERMESHLKTVEAYDVTFSGYRGQRIKGWLLVPKLEEEKLPCVVQYIGYNGGRGFPHDWLFWPSMGYICFVMDTRGQGSGWLKGDTPDYPEGPVDPQYPGFMTRGILDPRTYYYRRVFTDAVRAVEAAASFPQVDQERIVIAGGSQGGGIALAVSALSKKAKALLCDVPFLCHFRRAVQLVDTHPYAEITNFLKTHRDKEEIVFRTLSYFDGVNFAARAKIPALFSVGLMDNICPPSTVFAAYNYYAGPKEIRIYPYNNHEGGGSFQAVEQVKFLKKLFEKG
Km [2]: 4.0 ± 0.1 mM | kcat [2]: 78.6 ± 12.9 s⁻¹ | kcat/Km [2]: 19700 ± 3300 M⁻¹ s⁻¹ | Km [3]: 4.2 ± 0.4 mM | kcat [3]: 70.1 ± 7.7 s⁻¹ | kcat/Km [3]: 16700 ± 2400 M⁻¹ s⁻¹ | Km [4]: 3.6 ± 0.5 mM | kcat [4]: 76.1 ± 19.2 s⁻¹ | kcat/Km [4]: 21100 ± 6100 M⁻¹ s⁻¹ | Km [5]: 0.185 ± 0.026 mM | kcat [5]: 57.5 ± 2.2 s⁻¹ | kcat/Km [5]: 311000 ± 45300 M⁻¹ s⁻¹ | Km [6]: 0.137 ± 0.013 mM | kcat [6]: 41.3 ± 1.1 s⁻¹ | kcat/Km [6]: 302000 ± 29700 M⁻¹ s⁻¹

B2: selenomethionine-substituted TM0077 (acetyl esterase from Thermotoga maritima) (enzyme, UniProt Q9WXT2 1-325, looked up)
chain: B1 chain
modifications: selenomethionine-substituted (selenomethionine in place of methionine)
stoichiometry N [7]: 6

B3: TM0077-paraoxon complex (TM0077 with DEP-modified Ser188) (enzyme, Thermotoga maritima, UniProt Q9WXT2 1-325, looked up)
chain: B1 chain
modifications: diethyl-phosphate (DEP) moiety covalently bound to the Oγ atom of Ser188
stoichiometry N [8]: 6

B4: native TM0077 (acetyl esterase from Thermotoga maritima) (enzyme, UniProt Q9WXT2 1-325, looked up)
chain: B1 chain
stoichiometry N [8]: 6

B5: TM0077-PMSF complex (TM0077 with PMS-modified Ser188) (enzyme, Thermotoga maritima, UniProt Q9WXT2 1-325, looked up)
chain: B1 chain
modifications: phenylmethyl sulfonyl (PMS) moiety covalently bound to the Oγ atom of Ser188
stoichiometry N [8]: 6
